T1: ovalbumin (UniProt P01012 2-386)
T1 sequence (looked up): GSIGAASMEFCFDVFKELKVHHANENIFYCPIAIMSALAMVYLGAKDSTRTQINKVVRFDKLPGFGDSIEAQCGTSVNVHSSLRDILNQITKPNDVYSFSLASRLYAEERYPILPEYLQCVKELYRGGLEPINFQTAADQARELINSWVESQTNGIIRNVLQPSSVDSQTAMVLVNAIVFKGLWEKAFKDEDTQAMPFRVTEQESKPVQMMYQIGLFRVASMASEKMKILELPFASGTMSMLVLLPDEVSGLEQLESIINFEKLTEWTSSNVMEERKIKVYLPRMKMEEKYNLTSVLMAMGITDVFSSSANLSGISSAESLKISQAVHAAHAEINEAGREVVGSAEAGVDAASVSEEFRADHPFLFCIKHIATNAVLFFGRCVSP

B1: phage clone GEASCAYHLGELVWCDEGEG (peptide)
peptide: GEASCAYHLGELVWCDEGEG
notes: M13/gIII phage display; Secondary Optimization
B2: phage clone GVRNCAYHLGELVWCTPMEF (peptide)
peptide: GVRNCAYHLGELVWCTPMEF
notes: as for B1
B3: phage clone WEEDCAWHLGELVWCAEFDE (peptide)
peptide: WEEDCAWHLGELVWCAEFDE
notes: as for B1
B4: phage clone RVADCAWHMGELVWCSELEV (peptide)
peptide: RVADCAWHMGELVWCSELEV
notes: as for B1
B5: phage clone WVEDCAWHMGELVWCTKVDE (peptide)
peptide: WVEDCAWHMGELVWCTKVDE
notes: as for B1
B6: phage clone KEARCWYWHGELVWCSDPEE (peptide)
peptide: KEARCWYWHGELVWCSDPEE
notes: M13/gIII phage display; Focused Libraries
B7: phage clone EEPDCSWHLGELVMCTPMEV (peptide)
peptide: EEPDCSWHLGELVMCTPMEV
notes: as for B1
B8: phage clone EEPDCSWHLGELVWCTPIEV (peptide)
peptide: EEPDCSWHLGELVWCTPIEV
notes: as for B1
B9: phage clone EEASCAYHLGELVWCDAFDV (peptide)
peptide: EEASCAYHLGELVWCDAFDV
notes: as for B1
B10: phage clone WVEDCSWHMGELVWCDGGEF (peptide)
peptide: WVEDCSWHMGELVWCDGGEF
notes: as for B6
B11: phage clone EVEDCAYHLGELVWCSDLEG (peptide)
peptide: EVEDCAYHLGELVWCSDLEG
notes: as for B1
B12: phage clone KEASCSWHLGELVWCVAGVE (peptide)
peptide: KEASCSWHLGELVWCVAGVE
notes: as for B6
B13: phage clone KEASCSYWLGELVWCSPGVE (peptide)
peptide: KEASCSYWLGELVWCSPGVE
notes: as for B6
B14: phage clone KEASCSYHLGELVWCVAGVE (peptide)
peptide: KEASCSYHLGELVWCVAGVE
notes: as for B6
B15: phage clone KEASCSYWLGELVWCTEGVE (peptide)
peptide: KEASCSYWLGELVWCTEGVE
notes: as for B6
B16: phage clone READCAWHLGELVWCSERDL (peptide)
peptide: READCAWHLGELVWCSERDL
notes: as for B1
B17: phage clone GEPDCAWHLGELVWCTPMVF (peptide)
peptide: GEPDCAWHLGELVWCTPMVF
notes: as for B1
B18: phage clone GEADCSYHLGELVWCNDFEE (peptide)
peptide: GEADCSYHLGELVWCNDFEE
notes: as for B1
B19: phage clone EVADCSWHLGELVWCTEGEF (peptide)
peptide: EVADCSWHLGELVWCTEGEF
notes: as for B1
B20: phage clone KVADCAWHMGELVWCTEVEG (peptide)
peptide: KVADCAWHMGELVWCTEVEG
notes: as for B1
B21: phage clone GEEDCAWHLGELVWCSGGDF (peptide)
peptide: GEEDCAWHLGELVWCSGGDF
notes: as for B1
B22: phage clone GEEDCSYHLGELVMCTELDD (peptide)
peptide: GEEDCSYHLGELVMCTELDD
notes: as for B1
B23: phage clone WVDCAYHLGELVWCSTFEE (peptide)
peptide: WVDCAYHLGELVWCSTFEE
notes: M13/gIII phage display; Secondary Optimization; printed with 19 residues
B24: phage clone KEASCAWHLGELVWCSEVEE (peptide)
peptide: KEASCAWHLGELVWCSEVEE
notes: as for B1
B25: phage clone EQADCAWHLGELVWCTPMVF (peptide)
peptide: EQADCAWHLGELVWCTPMVF
notes: as for B1
B26: phage clone KEASCSYWLGELVWCDGLDE (peptide)
peptide: KEASCSYWLGELVWCDGLDE
notes: as for B6
B27: phage clone KEASCSYWLGELVWCVGLDE (peptide)
peptide: KEASCSYWLGELVWCVGLDE
notes: as for B6
B28: phage clone KEASCSYWLGELVWCDTFDE (peptide)
peptide: KEASCSYWLGELVWCDTFDE
notes: as for B6
B29: phage clone GEQDCSYHMGELVWCTTVDG (peptide)
peptide: GEQDCSYHMGELVWCTTVDG
notes: as for B1
B30: phage clone RVEDCAYHLGELVWCTEGDE (peptide)
peptide: RVEDCAYHLGELVWCTEGDE
notes: as for B1
B31: phage clone KEADCAWHMGELVWCSEMEG (peptide)
peptide: KEADCAWHMGELVWCSEMEG
notes: as for B1
B32: phage clone GEEDCAWHLGELVWCTDVED (peptide)
peptide: GEEDCAWHLGELVWCTDVED
notes: as for B1
B33: phage clone DLADCSYWLGELVWCSRVEG (peptide)
peptide: DLADCSYWLGELVWCSRVEG
notes: as for B6
B34: RB-R8 (peptide)
peptide: QGLIGDICLPRWGCLWGDSV
modifications: not fully specified (bridges); printed as Gln-Gly-Leu-Ile-Gly-Asp-Ile-Cys-Leu-Pro-Arg-Trp-Gly-Cys-Leu-Trp-Gly-Asp-Ser-Val; cysteine pairing not given here
notes: phage clone, Library RB
B35: phage clone AEADCAWHLGELVWCTKVEE (peptide)
peptide: AEADCAWHLGELVWCTKVEE
notes: M13/gIII phage display; ALA Scan on Phage
B36: phage clone WEPDCAWHLGELVWCTKVEE (peptide)
peptide: WEPDCAWHLGELVWCTKVEE
notes: as for B35
B37: phage clone WEADCAWHLGELVWCTKVAE (peptide)
peptide: WEADCAWHLGELVWCTKVAE
notes: as for B35
B38: phage clone WEADCAWHLGELVWCTAVEE (peptide)
peptide: WEADCAWHLGELVWCTAVEE
notes: as for B35
B39: phage clone WEAACSWHLGELVWCTKVEE (peptide)
peptide: WEAACSWHLGELVWCTKVEE
notes: as for B35
B40: phage clone WEADCAWHAGELVWCTKVEE (peptide)
peptide: WEADCAWHAGELVWCTKVEE
notes: as for B35
B41: phage clone WEADCAWHLAELVWCTKVEE (peptide)
peptide: WEADCAWHLAELVWCTKVEE
notes: as for B35
B42: phage clone WEADCAWALGELVWCTKVEE (peptide)
peptide: WEADCAWALGELVWCTKVEE
notes: as for B35
B43: phage clone WEADCAWHLGELVWCAKVEE (peptide)
peptide: WEADCAWHLGELVWCAKVEE
notes: as for B35
B44: phage clone WEADCAWHLGELAWCTKVEE (peptide)
peptide: WEADCAWHLGELAWCTKVEE
notes: as for B35
B45: phage clone WEADCAWHLGELVACTKVEE (peptide)
peptide: WEADCAWHLGELVACTKVEE
notes: as for B35
B46: phage clone WEADCAWHLGALVWCTKVEE (peptide)
peptide: WEADCAWHLGALVWCTKVEE
notes: as for B35
B47: phage clone WEADCAWHLGEAVWCTKVEE (peptide)
peptide: WEADCAWHLGEAVWCTKVEE
notes: as for B35
B48: phage clone WEAACAWHLGELVWCTKVEE (peptide)
peptide: WEAACAWHLGELVWCTKVEE
notes: as for B35
B49: phage clone WEADCAAHLGELVWCTKVEE (peptide)
peptide: WEADCAAHLGELVWCTKVEE
notes: as for B35
B50: phage clone WEADCAWHLGELVWCTKAEE (peptide)
peptide: WEADCAWHLGELVWCTKAEE
notes: as for B35
B51: phage clone WAADCAWHLGELVWCTKVEE (peptide)
peptide: WAADCAWHLGELVWCTKVEE
notes: as for B35

Where no end group is shown, it is not given here.

The first assay addresses T2, IgG-Fc (UniProt P01857-1 108-330 = IgG part, limits assumed).
T2 construct: domain: IgG-Fc; also called biotinylated-IgG-Fc; biotin-IgG-Fc
The assay is described as follows: phage ELISA, M13/gIII display. (In an ELISA, binding on a coated surface is turned into a signal by an enzyme label.)
Usually EC50 stands for the concentration that produces a half-maximal response. Turning to B1, the concentration for a half-maximal effect (EC50) came out at 386 nM.

The molecule B2 registered an EC50 of 10 nM. The molecule DLADCSWHLGELVWCVGLDE (M13/gIII phage display; Designed Clones) [phage clone DLADCSWHLGELVWCVGLDE] returned an EC50 of 28 nM. Same read-out and setting: in the case of B3 it was 44 nM. Still for that read-out and setting: next, B4: 44 nM. B5 registered a 50% effective concentration (EC50) of 70 nM. On to B6, for which the response was half-maximal at 809 nM (EC50).

In the case of B7, the EC50 is 14 nM. The same measure, in the same setting: next, B8: 15 nM; B9: 77 nM; B10: 139 nM. Molecule WVEDCSWHLGELVWCVGLDF (M13/gIII phage display; Designed Clones) [phage clone WVEDCSWHLGELVWCVGLDF] displayed an EC50 of 31 nM. In turn, B11 gave an EC50 of 82 nM. Still for that read-out and setting: next, B12: 225 nM. Molecule B13 registered a half-maximal effective concentration (EC50) of 734 nM. Take B14: it took 416 nM to reach a half-maximal effect (EC50). B15 came in with a concentration for a half-maximal effect (EC50) of 818 nM. Same read-out and setting: in the case of B16 it was 47 nM. B17 returned an EC50 of 7 nM. B18 returned an EC50 of 156 nM. In turn, B19 gave a 50% effective concentration (EC50) of 54 nM. The molecule B20 came in with an EC50 of 23 nM. The molecule B21 came in with a concentration for a half-maximal effect (EC50) of 100 nM.

On to B22, for which the response was half-maximal at 69 nM (EC50). In turn, B23 came in with an EC50 of 9 nM. The same measure, in the same setting: next, B24: 130 nM; B25: 8 nM. In the case of B26, the EC50 was found to be 326 nM. The same measure, in the same setting: next, B27: 278 nM; B28: 301 nM. On the same count and under the same terms, next, B29: 210 nM; B30: 63 nM.

Take B31: the EC50 was 66 nM. Consider B32, for which a half-maximal response (EC50) required 52 nM.

DLADCSWHLGELVWCSRVEG (M13/gIII phage display; Designed Clones) [phage clone DLADCSWHLGELVWCSRVEG] returned a half-maximal effective concentration (EC50) of 9 nM. Turning to B33, it took 776 nM to reach a half-maximal effect (EC50).

Another assay concerns the target T1, ovalbumin. Kind of assay: phage ELISA, photograph of the plate.
As to B34, the binding result is reported as “no binding”. Still for that read-out and setting: in the case of HSQMEDICLPRWGCLWGDEL (not fully specified (bridges); cysteine pairing not given here, phage clone, Library RB) [RB-B8] it was “no binding”; in that of QRHPEDICLPRWGCLWGDDD (not fully specified (bridges); cysteine pairing not given here, phage clone, Library RB) [RB-H1], “no binding”.

For another assay, the target named is T2, IgG-Fc. Kind of assay: phage ELISA, M13/gIII display, ALA scan.
As to B35, the EC50 was 20 nM. The same measure, in the same setting: next, B36: 36 nM. On the same count and under the same terms, next, B37: 4 nM; B38: 10 nM. Molecule B39 gave a half-maximal effective concentration (EC50) of 10 nM.

In the case of B40, the midpoint of the response, the EC50, lay at 56 nM. On the same count and under the same terms, in the case of B41 it was 12 nM; in that of B42, 139 nM. On the same count and under the same terms, next, B43: 101 nM. On to B44, for which the midpoint of the response, the EC50, lay at 4670 nM. Same read-out and setting: in the case of B45 it was 3380 nM; in that of B46, 11 nM; in that of B47, 1890 nM.

In turn, B48 came in with a half-maximal effective concentration (EC50) of 55 nM.

B49 gave an EC50 of 798 nM. Regarding B50, a half-maximal effect (EC50) was put at 8 nM. In the case of B51, the midpoint of the response, the EC50, lay at 34 nM.

These data come from patent publication US20040253247A1 (Genentech, published 2004).
